Test results: patent publication US20220153853A1 (JIANGSU HENGRUI MEDICINE, published 2022)
Numbering of substitutions follows the chain as printed.

B1: hu1803-9 (antibody, human IgG4 S228P, kappa, F234A L235A, V domains shown)
VH: EVQLVQSGAEVKKPGASVKVSCKASGYTFTDYWIEWVRQAPGQGLEWMGEILPGSTYTNYNEKFKGRVTMTRDTSTSTVYMELSSLRSEDTAVYYCARGLSTLMAVDYFDYWGQGTTVTVSS
VL: DIQMTQSPSSLSASVGDRVTITCRASQDISNYLNWYQQKPGKAVKLLIYYSSTLHSGVPSRFSGSGSGTDYTLTISSLQPEDFATYYCQQTNIFPWTFGGGTKVEIKR
notes: IgG4-AA / kappa humanized antibody; also called hu1803_VH.1 + hu1803_VL.1B; GCGR monoclonal antibody
B2: hu1810-12 (antibody, human IgG4 S228P, kappa, F234A L235A, V domains shown)
VH: QVQLVQSGAEVKKPGSSVKVSCKASGGTFSNYAISWVKQAPGQGLEWIGEIYPTSGNTYYNEKFKGKATLTADRSTSTMYMELSSLRSEDTAVYYCASGVITTVVSTDYFDYWGQGTLVTVSS
VL: B1 VL with Q27L, Q38L, S51T, P59S, D70E, T91G, I93M, F94V, W96Y
notes: IgG4-AA / kappa humanized antibody; also called hu1810_VH.1C + hu1810_VL.1B
B3: ch1810 (antibody, human IgG4 S228P, kappa, F234A L235A, V domains shown)
VH: QVQLQQSGTELARPGTSVTLSCKASGYTFTNYAISWVKQRTGQGLEWIGEIYPTSGNTYYNEKFKGKATLTADRSSKTMYMELRSLTSVDSAVYFCASGVITTVVSTDYFDYWGQGSPLTVSS
VL: DIQMTQIPSSLSVSLGDRVTISCRASLDISNYLNWYQLKPDGTVKLLIYYTSTLHSGVSSRFSGSGSGTEYSLTISNLEQEDIATYFCQQGNMVPYTFGGGTKLEIKR
B4: ch1817 (antibody, human IgG4 S228P, kappa, F234A L235A, V domains shown)
VH: EVQLVESGGDLVQPGRSMKLSCAASGFTFSNYYMAWVRQAPTKGLEWVASISTGGVNTYYRDSVKGRFTISRDNAKNNLYLQMDSLRSEETATYYCARHTTADYFYGIYFALDAWGQGTSVTVSS
VL: QFTLTQPKSVSGSLRSTITIPCERSSGDIGDSYVNWYQQHLGRPPLNVIYADVQRPSEVSDRFSGSIDSSSNSASLTITNLQMDDEADYFCQSYDTNIDIIFGGGTKLTVLR
notes: IgG4-AA / kappa chimeric antibody
B5: ch1822 (antibody, human IgG4 S228P, kappa, F234A L235A, V domains shown)
VH: B4 VH with Q3R, L11F, M18V, A49G, K76E, N77S, N78T, A102P, F105H, L112M
VL: B4 VL with F2V, D31E, L46I, V53D, M83V, T96S, N97S, I101F
notes: as for B4
B6: ch1803 (antibody, human IgG4 S228P, kappa, F234A L235A, V domains shown)
VH: QFQLHQSGAELVKPGASVKLSCKATGYTFTDYWIEWVKQRPGHGLEWIGEILPGSTYTNYNEKFKGRATFTAEPSSSSAYMQLSGLTTEDSAIYYCSRGLSTLMAVDYFDYWGQGTTLTVSS
VL: DIQMTQTTSSLSASLGDRVTINCRASQDISNYLNWYQQKPDGTVKLLIYYSSTLHSGVPSRFSGSGSGTDYSLTISHLEQEDIATYFCQQTNIFPWTFGGGTKLEIRT
notes: as for B4
B7: ch1808 (antibody, human IgG4 S228P, kappa, F234A L235A, V domains shown)
VH: QVQLQQSGAELARPGASVKLSCKASGDTFTTNGISWVKQRIGQGLEWIGEIYPRSGNTYYNENFKGKATLTADKSSTTAYMELRRLTSEDSAVYFCARSITSVIGADYFDYWGQGTTLTVSS
VL: B6 VL with N22S, Q38K, H77N, T91G, I93T, R107K, T108R
notes: as for B4
B8: ch1805 (antibody, human IgG4 S228P, kappa, F234A L235A, V domains shown)
VH: EVQLQQSGPELVKPGASVKIPCKTSGYTFTDYNMDWVKQSHGRSLEWIGSIDPDNGGTIYNQKFKGKATLTVDKSSSTAYMELRSLTSEDTAVYYCTRDYYGSSSWFAYWGQGTLVTVSA
VL: DVVMTQSPATLSVTPGDRVSLSCRASQSISDYLHWYQQKSHESPRLLIKYASQSISGIPSRFSGSGSGSDFTLSINSVEPEDVGVYYCQNGHSFPYTFGGGTKLEIKR
notes: IgG4-AA / kappa chimeric antibody; also called chimeric antibody of clone 1805
B9: hu1810-11 (antibody, human IgG4 S228P, kappa, F234A L235A, V domains shown)
VH: B2 VH with K38R, K67R
VL: B1 VL with Q27L, Q38L, S51T, P59S, D70E, T91G, I93M, F94V, W96Y

These binders were tested against Cynomolgus monkey GCGR (cynomolgus monkey) (assay: cell-based or functional assay).

IC50 [nM] | Imax (%) | Binder
220 | 100 | B1
886 | 99 | B2

Each binder was assayed against T1, Mouse GCGR (mouse, UniProt Q61606 27-485) (assay: cell-based or functional assay).
T1 sequence (Q61606 27-485): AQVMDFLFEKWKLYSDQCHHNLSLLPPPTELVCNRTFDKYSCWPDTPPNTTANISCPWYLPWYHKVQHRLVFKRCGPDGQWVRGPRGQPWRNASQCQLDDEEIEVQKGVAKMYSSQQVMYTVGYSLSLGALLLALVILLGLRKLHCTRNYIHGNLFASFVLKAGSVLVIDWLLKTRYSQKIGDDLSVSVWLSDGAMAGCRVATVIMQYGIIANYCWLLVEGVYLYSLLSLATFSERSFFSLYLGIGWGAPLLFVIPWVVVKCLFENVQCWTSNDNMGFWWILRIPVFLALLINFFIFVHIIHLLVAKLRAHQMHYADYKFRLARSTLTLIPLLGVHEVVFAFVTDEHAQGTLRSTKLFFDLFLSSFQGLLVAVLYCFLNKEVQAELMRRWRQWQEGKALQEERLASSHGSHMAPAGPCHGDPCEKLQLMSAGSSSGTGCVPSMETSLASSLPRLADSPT

IC50 [nM] | Imax (%) | Binder
11.2 | 100 | B1
17.5 | 97 | B2

Each binder was assayed against T2, human GCGR (full-length glucagon receptor of 477 amino acids) (human, UniProt P47871 26-477) (assay: cell-based or functional assay).
T2 sequence (P47871 26-477 limits assumed): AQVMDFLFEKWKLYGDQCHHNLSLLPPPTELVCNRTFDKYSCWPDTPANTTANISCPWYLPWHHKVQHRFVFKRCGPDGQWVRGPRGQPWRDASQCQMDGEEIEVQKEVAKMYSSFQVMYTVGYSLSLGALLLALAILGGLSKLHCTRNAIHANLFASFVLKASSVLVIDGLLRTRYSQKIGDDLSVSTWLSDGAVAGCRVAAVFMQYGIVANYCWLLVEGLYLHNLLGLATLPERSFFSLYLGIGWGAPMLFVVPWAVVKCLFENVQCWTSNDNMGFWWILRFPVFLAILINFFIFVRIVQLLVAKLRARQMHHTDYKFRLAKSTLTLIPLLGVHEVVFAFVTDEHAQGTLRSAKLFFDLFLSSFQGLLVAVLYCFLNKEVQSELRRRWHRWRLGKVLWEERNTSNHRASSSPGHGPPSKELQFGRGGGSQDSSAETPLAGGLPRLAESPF

IC50 [nM] | Imax [%] | Binder
72.5 | 100 | B3
59.8 | 83 | B4
62.5 | 59 | B5
79.3 | 100 | B6
105 | 98 | B7
95 | 91 | B8

Molecular target: T1, Mouse GCGR
Assay: cell-based or functional assay
Remark: another data set of the same source

IC50 [nM] | Imax (%) | Binder
12.8 | 96 | B4
16 | 87 | B5
24.7 | 93 | B6
26.6 | 100 | B7
18 | 100 | B8

Molecular target: T2, human GCGR (full-length glucagon …)
Assay: cell-based or functional assay
Remark: another data set of the same source

IC50 [nM] | Imax (%) | Binder
54 | 100 | B1

The binders below were run against T2, human GCGR (full-length glucagon …) (assay: competitive cell ELISA on GCGR-overexpressing CHO cells, biotin-labeled against unlabeled antibody; competitor hu1810-12).
Source text: (§1) The GCGR epitopes bound by GCGR antibodies were classified by ELISA assay, in which the competitive binding of the biotin-labeled antibodies with different concentrations of the standard antibody to GCGR-overexpressing CHO cells was detected. The method for preparing the cell plate was the same as that of Test Example 1. The following specific procedures are as follows: The antibody was labelled according to the biotin labeling kit instructions (Dojindo
(§2) Molecular Technologies, Inc. LK03). The unlabeled test antibody was diluted to a range of concentrations with sample dilution solution in a 96-well cell plate, 50 μl/well, and incubated at 37° C. for 2 hours. After the incubation was finished, the plate was washed 3 times with PBST, 50 μl/well of biotin-labeled antibody diluted with sample dilution solution was added, at a concentration of 0.1 μg/ml, incubated at 37° C. for 2 hours, the plate was washed 3 times with PBST, and HRP-labeled goat-anti-human secondary antibody (JacksoW ImmuWo Research, Cat Wo. 109-035-003) was added, and incubated at 37° C. for 1 hour. The plate was washed 3 times with PBST, 50 μl/well of TMB chromogenic substrate (KPL, Cat No. 52-00-03) was added, incubated at room temperature for 10 min, and 50 μl/well of 1M H₂SO₄ was added to stop the reaction. The absorbance value was read by a microplate reader (Thermo scientific Multiskan MK3) at a wavelength of 450 nm, and the data was analyzed with GraphPad Prism 5.

competition efficiency IC % [%] | Binder
100 | B1
100 | B2
54.3 | B7
100 | B8

Molecular target: T2, human GCGR (full-length glucagon …)
Assay: cell-based or functional assay
Remark: another data set of the same source

IC50 [nM] | Imax [%] | Binder
78.4 | 100 | B1
91.3 | 99.6 | B9
75.9 | 99.7 | B2

Each binder was assayed against T2, human GCGR (full-length glucagon …) (assay: competitive cell ELISA on GCGR-overexpressing CHO cells, biotin-labeled against unlabeled antibody; competitor hu1803-9).
Source text: as §1, §2

competition efficiency IC % [%] | Binder
100 | B1
100 | B2
46.6 | B7
100 | B8

Each binder was assayed against T2, human GCGR (full-length glucagon …) (assay: competitive cell ELISA on GCGR-overexpressing CHO cells, biotin-labeled against unlabeled antibody; competitor ch1808).
Source text: as §1, §2

competition efficiency IC % [%] | Binder
100 | B1
100 | B2
100 | B7
100 | B8

These binders were tested against T3, Cynomolgus monkey GCGR (cynomolgus monkey) (assay: cell ELISA on fixed CHO cells overexpressing GCGR).
T3 construct: whole, on cells; also called cynomolgus GCGR
Description: (§3) The expression levels of GCGR were detected after two weeks of pressure screening, After the GCGR-overexpressing cells were fixed to the bottom of 96-well plate, the antibodies were added and the signal strength was used to determine the binding activity of the antibody to GCGR overexpressing CHO cells. The binding abilities of the antibody to the three species of GCGRs were detected with the same binding assay. As an example, the binding of the GCGR antibodies to human GCGR was detected by an assay specifically described as follows:
(§4) The cells were seeded in a 96-well plate at a density of 0.9-1.0×10⁶/ml, 100 μl/well and cultured overnight. The supernatant was discarded, the plate was washed three times with PBS, 100 μl/well of cell immune fixed solution (Beyotime, Cat No. P0098) was added and fixed for an hour at room temperature, and washed four times with PBS. The liquid was discarded, 200 μl/well blocking solution (5% skim milk (BD skim milk, Cat Wo. 232100) diluted with PBS) was added, and incubated in an incubator at 37° C. for 3 hours for blocking. After the blocking was finished, the blocking solution was discarded, the plate was washed 3 times with PBST buffer (PBS comprising 0.05% tweenW-20, pH7.4), 50 μl/well of various concentrations of each of the test antibodies (antibodies purified from hybridoma, chimeric antibodies or humanized antibodies) diluted with sample dilution solution were added, and incubated in an incubator at 37° C. for 2 hours. After the incubation was finished, the plate was washed 3 times with PBST, 50 μl/well of HRP-labeled goat anti-mouse secondary antibody (JacksoW ImmuWo Research, Cat No. 115-035-003) or goat anti-human secondary antibody (JacksoW ImmuWo Research, Cat Wo. 109-035-003) diluted with sample dilution solution was added, and incubated at 37° C. for 1 hour. The plate was washed 3 times with PBST, 50 μl/well of TMB chromogenic substrate (KPL, Cat Wo. 52-00-03) was added, incubated at room temperature for 10 min, and 50 μl/well of 1M H₂SO4 was added to stop the reaction. The absorbance value was read by a microplate reader (Thermo scientific Multiskan MK3) at a wavelength of 450 nm, and the data was analyzed with GraphPad Prism 5. The binding of GCGR chimeric antibodies to GCGR-overepressing CHO cells was calculated as EC50 value.

EC50 [nM] | Binder
0.248 | B3
0.297 | B4
0.428 | B5
0.213 | B6
0.536 | B7
0.358 | B8

The binders below were run against T2, human GCGR (full-length glucagon …) (assay: cell ELISA on fixed CHO cells overexpressing GCGR).
Description: as §3, §4

EC50 [nM] | Binder
0.117 | B3
0.193 | B4
0.383 | B5
0.117 | B6
0.677 | B7
0.297 | B8

The binders below were run against T1, Mouse GCGR (assay: cell ELISA on fixed CHO cells overexpressing GCGR).
Description: as §3, §4

EC50 [nM] | Binder
0.442 | B3
0.164 | B4
0.568 | B5
0.718 | B6
1.02 | B7
0.343 | B8
